Kd data for four molecules are collected here from US20240182592A1 (CHIA TAI TIANQING PHARMACEUTICAL GROUP, published 2024).

In the experiment the target is T1, human BCMA protein (human, UniProt Q02223 1-54, limits assumed).
T1 construct: also called hBCMA; Antigen BCMA
T1 sequence (looked up): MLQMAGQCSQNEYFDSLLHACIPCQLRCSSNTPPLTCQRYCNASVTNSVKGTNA
Description: SPR (Biacore T200), antibody captured by anti-hIgG, human BCMA as analyte, 1:1 model. The protocol:
The affinity of the test antibody for human BCMA protein was determined by Biacore T200 (GE) as follows:
The response signals were detected in real time using Biacore software, and association and dissociation curves were obtained. The buffer used in the experiment was Biacore universal buffer (137 mM NaCl, 2.7 mM KCl, 10 mM Na₂HPO₄.12H₂O, 1.8 mM KH₂PO₄, 0.05% surfactant P-20 (w/v), pH 7.4). […] The flow rate in the flow cell was at 50 μL/min, the association was performed for 240 s, the dissociation was performed for 1400 s, the regeneration was performed using 3 M MgCl₂ (GE) for 60 s, and the baseline was stable. Results were obtained by calculation according to the affinity and kinetics 1:1 binding mode in biacore evaluation software.
In general terms: SPR reads the build-up and loss of mass on a sensor chip optically.

B1: 1A11-V1 (antibody, human IgG1, V domains shown)
VH: QVQLVESGGGLVQPGGSLRLSCAASGFTFNSACMGWFRQAPGKGREGVSRIETGYGGTVYADSVKGRFTISRDNSKNTVYLQMNSLRAEDTAVYYCAAKRSWCTPTWWHELDYNYWGQGTQVTVSS
notes: Humanized VHH fused to human IgG1 Fc; also called humanized antibody 1A11-V1
Turning to B1, the affinity, expressed as Kd, was 5.05 nM.

B2: 1A11-V2 (antibody, human IgG1, V domains shown)
VH: QVQLVESGGGLVQPGGSLRLSCAASGFTFNSACMGWFRQAPGKEREGVSRIETGYGGTVYADSVKGRFTISRDNSKNTVYLQMNSLKAEDTAVYYCAAKRSWCTPTWWHELDYNYWGQGTQVTVSS
notes: Humanized VHH fused to human IgG1 Fc; also called humanized antibody 1A11-V2
Regarding B2, binding was put at a Kd of 4.37 nM.

B3: 1A10-V1 (antibody, human IgG1, V domains shown)
VH: QVQLVESGGGLVQPGGSLRLSCAASGYSSNVACMAWYRQAPGKGLEWVATIVADFGTTNYAASVKGRFTISQDNSKNTVYLQMNSLRAEDTAVYYCAATQRGGIDWCDEINYWGQGTLVTVSS
notes: Humanized VHH fused to human IgG1 Fc; also called humanized antibody 1A10-V1
On to B3, for which the Kd (as a rule, the equilibrium constant for the complex coming apart) is 0.337 nM.

B4: 1A10-V2 (antibody, human IgG1, V domains shown)
VH: QVQLVESGGGLVQPGGSLRLSCAASGYSSNVACMAWYRQAPGKEREWVSTIVADFGTTNYAASVKGRFTISQDNSKNTVYLQMNSLRAEDTAVYYCAATQRGGIDWCDEINYWGQGTLVTVSS
notes: Humanized VHH fused to human IgG1 Fc; also called humanized antibody 1A10-V2
With B4, the Kd was 1.31 nM.
